Data from patent EP4595979A1 (SystImmune, Inc., dated 2024).

B1: ADC-1-2a (antibody, human IgG1, kappa, DAR 1.79)
heavy: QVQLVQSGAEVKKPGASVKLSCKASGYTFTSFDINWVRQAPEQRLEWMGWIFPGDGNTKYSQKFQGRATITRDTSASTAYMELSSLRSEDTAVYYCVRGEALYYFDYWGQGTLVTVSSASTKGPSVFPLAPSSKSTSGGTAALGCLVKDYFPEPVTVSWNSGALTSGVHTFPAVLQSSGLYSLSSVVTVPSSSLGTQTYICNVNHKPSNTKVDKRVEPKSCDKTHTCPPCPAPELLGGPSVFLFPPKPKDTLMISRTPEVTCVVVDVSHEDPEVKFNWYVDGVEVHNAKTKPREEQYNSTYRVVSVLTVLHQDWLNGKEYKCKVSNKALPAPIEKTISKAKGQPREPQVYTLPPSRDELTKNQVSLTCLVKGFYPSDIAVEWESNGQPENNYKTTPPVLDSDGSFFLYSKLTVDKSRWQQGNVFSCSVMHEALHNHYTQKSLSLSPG
light: DIQMTQSPSSLSASVGDRVTITCRASQDINKYLAWYQQKPGKVPKLLIYSTSTLQSGVPSRFSGSGSGTDFTLTISSLQPEDVATYYCLQYDDLFTFGQGTKLEIKRTVAAPSVFIFPPSDEQLKSGTASVVCLLNNFYPREAKVQWKVDNALQSGNSQESVTEQDSKDSTYSLSSTLTLSKADYEKHKVYACEVTHQGLSSPVCTKSFNRGEC
modifications: linker-payload LP-1a conjugated site-specifically after partial reduction (general step B), average DAR 1.79; chain and residue not stated
B2: ADC-2-2a (antibody, human IgG1, kappa, DAR 1.81)
heavy: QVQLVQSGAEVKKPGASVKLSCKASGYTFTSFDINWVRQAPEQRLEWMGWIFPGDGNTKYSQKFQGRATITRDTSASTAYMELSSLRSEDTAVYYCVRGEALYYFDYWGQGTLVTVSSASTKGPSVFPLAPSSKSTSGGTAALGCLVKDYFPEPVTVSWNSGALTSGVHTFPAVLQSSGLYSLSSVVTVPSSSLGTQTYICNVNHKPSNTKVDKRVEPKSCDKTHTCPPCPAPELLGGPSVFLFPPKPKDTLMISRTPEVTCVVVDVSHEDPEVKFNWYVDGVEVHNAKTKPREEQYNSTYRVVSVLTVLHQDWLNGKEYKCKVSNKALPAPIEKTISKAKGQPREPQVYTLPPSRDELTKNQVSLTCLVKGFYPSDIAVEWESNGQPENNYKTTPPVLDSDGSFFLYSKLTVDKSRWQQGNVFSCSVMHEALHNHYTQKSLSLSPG
light: B1 light
modifications: linker-payload LP-2a conjugated site-specifically after partial reduction (general step B), average DAR 1.81; chain and residue not stated
B3: ADC-C-2a (antibody, human IgG1, kappa, DAR 1.85)
heavy: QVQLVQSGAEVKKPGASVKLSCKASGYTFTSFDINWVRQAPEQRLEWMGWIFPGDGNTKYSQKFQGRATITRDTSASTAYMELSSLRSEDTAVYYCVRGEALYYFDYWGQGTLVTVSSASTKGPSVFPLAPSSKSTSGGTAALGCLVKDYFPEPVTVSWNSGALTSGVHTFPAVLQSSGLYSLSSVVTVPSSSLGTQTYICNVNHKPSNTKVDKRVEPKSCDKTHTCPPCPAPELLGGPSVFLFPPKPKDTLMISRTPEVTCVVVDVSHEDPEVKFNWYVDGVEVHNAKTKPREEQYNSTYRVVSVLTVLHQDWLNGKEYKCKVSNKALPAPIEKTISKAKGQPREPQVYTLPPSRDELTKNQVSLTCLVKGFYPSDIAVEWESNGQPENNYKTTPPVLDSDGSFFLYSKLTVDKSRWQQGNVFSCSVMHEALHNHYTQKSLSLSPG
light: B1 light
modifications: VcMMAE conjugated site-specifically after partial reduction (general step B), average DAR 1.85; chain and residue not stated
B4: ADC-1-1a (antibody, human IgG1, kappa, DAR 7.59)
heavy: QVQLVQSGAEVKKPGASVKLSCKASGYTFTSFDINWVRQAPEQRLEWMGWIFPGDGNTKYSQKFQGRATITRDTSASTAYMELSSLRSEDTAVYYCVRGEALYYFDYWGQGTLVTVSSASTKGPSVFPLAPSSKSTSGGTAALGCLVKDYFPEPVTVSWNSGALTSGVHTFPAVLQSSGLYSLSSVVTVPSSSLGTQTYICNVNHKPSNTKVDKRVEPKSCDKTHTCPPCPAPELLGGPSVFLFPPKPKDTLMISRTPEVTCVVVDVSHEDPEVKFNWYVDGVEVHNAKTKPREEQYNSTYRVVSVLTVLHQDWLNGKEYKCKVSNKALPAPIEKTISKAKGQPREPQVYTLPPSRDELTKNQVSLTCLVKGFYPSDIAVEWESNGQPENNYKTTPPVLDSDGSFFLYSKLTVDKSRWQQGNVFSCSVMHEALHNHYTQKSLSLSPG
light: DIQMTQSPSSLSASVGDRVTITCRASQDINKYLAWYQQKPGKVPKLLIYSTSTLQSGVPSRFSGSGSGTDFTLTISSLQPEDVATYYCLQYDDLFTFGQGTKLEIKRTVAAPSVFIFPPSDEQLKSGTASVVCLLNNFYPREAKVQWKVDNALQSGNSQESVTEQDSKDSTYSLSSTLTLSKADYEKHKVYACEVTHQGLSSPVTKSFNRGEC
modifications: linker-payload LP-1a on a cysteine thiol of the reduced interchain disulfide (general step A); residue not stated; linker-payload LP-1a (auristatin E derivative) on cysteine thiols of the fully reduced interchain disulfides (general step A); residues not stated; average DAR 7.59
B5: ADC-2-1a (antibody, human IgG1, kappa, DAR 7.31)
heavy: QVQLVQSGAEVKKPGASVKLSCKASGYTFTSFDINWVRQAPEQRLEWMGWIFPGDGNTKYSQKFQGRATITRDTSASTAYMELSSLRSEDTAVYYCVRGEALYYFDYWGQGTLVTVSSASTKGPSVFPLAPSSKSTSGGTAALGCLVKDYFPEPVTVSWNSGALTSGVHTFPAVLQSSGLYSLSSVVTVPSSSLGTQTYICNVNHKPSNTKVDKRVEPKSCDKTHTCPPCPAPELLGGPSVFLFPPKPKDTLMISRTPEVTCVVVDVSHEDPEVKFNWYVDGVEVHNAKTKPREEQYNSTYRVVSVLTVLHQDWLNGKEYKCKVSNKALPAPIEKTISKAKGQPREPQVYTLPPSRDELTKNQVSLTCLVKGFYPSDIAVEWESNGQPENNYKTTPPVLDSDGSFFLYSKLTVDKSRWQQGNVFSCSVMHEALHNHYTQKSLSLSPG
light: B4 light
modifications: one linker-payload LP-2a on each light chain, maleimide partly ring-opened; residue not stated; linker-payload LP-2a (MMAE derivative) on cysteine thiols of the fully reduced interchain disulfides (general step A); residues not stated; average DAR 7.31
B6: ADC-C-1a (antibody, human IgG1, kappa, DAR 7.34)
heavy: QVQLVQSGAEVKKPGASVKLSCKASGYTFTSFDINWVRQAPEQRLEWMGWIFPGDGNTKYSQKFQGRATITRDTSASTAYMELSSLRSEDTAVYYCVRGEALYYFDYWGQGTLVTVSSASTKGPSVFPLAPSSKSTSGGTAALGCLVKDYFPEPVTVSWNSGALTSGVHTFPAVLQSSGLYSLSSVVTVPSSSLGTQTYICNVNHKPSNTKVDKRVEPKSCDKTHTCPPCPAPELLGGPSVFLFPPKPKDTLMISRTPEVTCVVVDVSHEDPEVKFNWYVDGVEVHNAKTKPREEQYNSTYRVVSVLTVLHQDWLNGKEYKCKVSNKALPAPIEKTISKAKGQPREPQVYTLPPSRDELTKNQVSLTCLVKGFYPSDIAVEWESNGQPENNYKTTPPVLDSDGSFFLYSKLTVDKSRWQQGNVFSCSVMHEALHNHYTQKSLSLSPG
light: B4 light
modifications: VcMMAE on a cysteine thiol of the reduced interchain disulfide (general step A); residue not stated; VcMMAE (MC-VC-PAB-MMAE) on cysteine thiols of the fully reduced interchain disulfides (general step A); residues not stated; average DAR 7.34

Each binder was assayed against T1, Trop2 (human, UniProt P09758 27-323) (assay: cell-based or functional assay).
T1 sequence (looked up): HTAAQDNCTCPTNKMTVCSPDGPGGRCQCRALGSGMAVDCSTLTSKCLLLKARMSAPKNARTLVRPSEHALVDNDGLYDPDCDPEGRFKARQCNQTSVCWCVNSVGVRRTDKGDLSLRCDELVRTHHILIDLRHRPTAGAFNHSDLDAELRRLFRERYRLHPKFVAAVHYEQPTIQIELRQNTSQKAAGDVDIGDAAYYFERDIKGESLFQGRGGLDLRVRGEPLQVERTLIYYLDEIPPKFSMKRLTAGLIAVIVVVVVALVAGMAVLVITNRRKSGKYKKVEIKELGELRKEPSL

In order of falling “IC50 (nM), in vitro cytotoxicity (120h), MTS cell viability, A431 cells (Trop2 positive)” value:
1. B3  0.32 nM
2. B2  0.11 nM
3. B1  0.05 nM
4. B6  0.02 nM
5. B4  0.01 nM
6. B5  0.005 nM

In order of falling “IC50 (nM), in vitro cytotoxicity (120h), MTS cell viability, BxPC-3 cells (Trop2 positive)” value:
1. B3  0.87 nM
2. B2  0.46 nM
3. B1  0.25 nM
4. B6  0.04 nM
5. B4  0.02 nM
6. B5  0.02 nM

In order of falling “IC50 (nM), in vitro cytotoxicity (120h), MTS cell viability, NCI-N87 cells (Trop2 positive)” value:
1. B3  4.9 nM
2. B2  4.7 nM
3. B1  2.6 nM
4. B6  0.63 nM
5. B4  0.36 nM
6. B5  0.35 nM
